Test results from ChEMBL document CHEMBL1137638, “TEM-158 (CMT-9), a new member of the CMT-type extended-spectrum beta-lactamases” (Antimicrob Agents Chemother, 2007).
Where a chain is given by its changes, count along the chain named.

How the values were obtained:
[1] = substrate: CC(C)(O/N=C(\C(=O)N[C@@H]1C(=O)N2C(C(=O)[O-])=C(C[n+]3ccccc3)CS[C@H]12)c1csc(N)n1)C(=O)O; conditions: Escherichia coli; DH5alpha CL1179
[2] = substrate: CC(C)(O/N=C(\C(=O)N[C@@H]1C(=O)N2C(C(=O)[O-])=C(C[n+]3ccccc3)CS[C@H]12)c1csc(N)n1)C(=O)O; conditions: Escherichia coli; TO799
[3] = substrate: CC(=O)OCC1=C(C(=O)O)N2C(=O)[C@@H](NC(=O)Cc3cccs3)[C@H]2SC1; assay: (§1) Activity of Escherichia coli DH5alpha beta-lactamase TEM-158 by microacidimetric method
[4] = substrate: CC1(C)S[C@@H]2[C@H](NC(=O)[C@H](C(=O)O)c3ccsc3)C(=O)N2[C@H]1C(=O)O; assay: as §1
[5] = substrate: CC1(C)S[C@@H]2[C@H](NC(=O)Cc3ccccc3)C(=O)N2[C@H]1C(=O)O; assay: as §1
[6] = substrate: CCN1CCN(C(=O)N[C@@H](C(=O)N[C@@H]2C(=O)N3[C@@H]2SC(C)(C)[C@@H]3C(=O)O)c2ccccc2)C(=O)C1=O; assay: as §1
[7] = substrate: CC(C)(O/N=C(\C(=O)N[C@@H]1C(=O)N2C(C(=O)[O-])=C(C[n+]3ccccc3)CS[C@H]12)c1csc(N)n1)C(=O)O; assay: as §1
[8] = substrate: CC1(C)S[C@@H]2[C@H](NC(=O)[C@H](N)c3ccc(O)cc3)C(=O)N2[C@H]1C(=O)O; assay: as §1
[9] = substrate: CC(=O)OCC1=C(C(=O)O)N2C(=O)[C@@H](NC(=O)Cc3cccs3)[C@H]2SC1; assay: (§2) Activity of Escherichia coli DH5alpha beta-lactamase TEM-1 by microacidimetric method
[10] = substrate: CC1(C)S[C@@H]2[C@H](NC(=O)[C@H](C(=O)O)c3ccsc3)C(=O)N2[C@H]1C(=O)O; assay: as §2
[11] = substrate: CC1(C)S[C@@H]2[C@H](NC(=O)Cc3ccccc3)C(=O)N2[C@H]1C(=O)O; assay: as §2
[12] = substrate: CCN1CCN(C(=O)N[C@@H](C(=O)N[C@@H]2C(=O)N3[C@@H]2SC(C)(C)[C@@H]3C(=O)O)c2ccccc2)C(=O)C1=O; assay: as §2
[13] = substrate: CC(C)(O/N=C(\C(=O)N[C@@H]1C(=O)N2C(C(=O)[O-])=C(C[n+]3ccccc3)CS[C@H]12)c1csc(N)n1)C(=O)O; assay: as §2
[14] = substrate: CC1(C)S[C@@H]2[C@H](NC(=O)[C@H](N)c3ccc(O)cc3)C(=O)N2[C@H]1C(=O)O; assay: as §2
[15] = substrate: CO/N=C(\C(=O)N[C@@H]1C(=O)N2C(C(=O)O)=C(COC(C)=O)CS[C@H]12)c1csc(N)n1; assay: as §2

B1: Beta lactamase TEM-152 (Escherichia coli), Q09Q13 (protein)
chain: MSIQHFRVALIPFFAAFCLPVFAHPETLVKVKDAEDQLGARVGYIELDLNSGKILESFRPEERFPMVSTFKVLLCGAVLSRVDAGQEQLGRRIHYSQNDLVEYSPVTEKHLTDGMTVRELCSAAITMSDNTAANLLLTTIGGPKELTAFLHNMGDHVTRLDHWEPELNEAIPNDERDTTMPAAMATTLRKLLTGELLTLASRQQLIDWMEADKVAGPLLRSALPAGWFIADKSGAGKRGSRGIIAALGPDGKPSRIVVIYTTGSQATMDERDRQIAEIGASLIKHW
- kcat [1]: 40 s⁻¹

B2: Beta-lactamase TEM-125 (Escherichia coli), Q6GWS8 (protein)
chain: B1 chain with F14L, V67L, H162S, W163R, K237E
- kcat [2]: 3.7 s⁻¹

B3: CMT-type beta lactamase (Escherichia coli), A5HJU3 (protein)
chain: B1 chain with V67L, H162S, K237E
- Km [3]: 170 µM
- kcat [3]: 0.26 s⁻¹
- Km [4]: 143 µM
- kcat [4]: 4.2 s⁻¹
- Km [5]: 38.1 µM
- kcat [5]: 18.5 s⁻¹
- Km [6]: 46 µM
- kcat [6]: 17.1 s⁻¹
- kcat [7]: 1.7 s⁻¹
- Km [8]: 24.8 µM
- kcat [8]: 14.4 s⁻¹

B4: Beta-lactamase TEM (Escherichia coli), P62593 (protein)
chain: B1 chain with V67M, H162R, K237E, D272N
- kcat [9]: 165 s⁻¹
- Km [10]: 36 µM
- kcat [10]: 135 s⁻¹
- Km [11]: 34 µM
- kcat [11]: 1500 s⁻¹
- Km [12]: 55 µM
- kcat [12]: 1250 s⁻¹
- kcat [13]: < 0.1 s⁻¹
- Km [14]: 15 µM
- kcat [14]: 1120 s⁻¹
- kcat [15]: < 0.1 s⁻¹
